Measurements reported in PMC6901440, “Bcl-2 regulates pyroptosis and necroptosis by targeting BH3-like domains in GSDMD and MLKL” (Cell Death Discovery, 2019).

Molecular target: T1, Bcl-2 (endogenous, THP-1 cells) (human (endogenous in THP-1), UniProt P10415 1-239)
T1 construct: Bcl-2 (B-cell lymphoma 2), endogenous in the human macrophage cell line THP-1; immunoprecipitated with anti-Bcl-2 antibody; also called B-cell lymphoma 2; source: endogenous, THP-1 lysate
Experiment: co-IP; endogenous proteins; Bcl-2 immunoprecipitated from THP-1 lysates; cells basal or LPS 50 ng/ml 5 h + nigericin 5 uM 30 min (Fig. 1b); PMA treated cells with or without TNFa 20 ng/ml, 100 nM Smac mimetic, 20 uM z-VAD-FMK for 3 h (Fig. 5d); lysis buffer 20 mM HEPES pH 7.4, 0.5% Triton X-100, 0.5% CHAPS, 10% glycerol; washed eight times
Conditions: partners not purified

T1 sequence (P10415 whole entry): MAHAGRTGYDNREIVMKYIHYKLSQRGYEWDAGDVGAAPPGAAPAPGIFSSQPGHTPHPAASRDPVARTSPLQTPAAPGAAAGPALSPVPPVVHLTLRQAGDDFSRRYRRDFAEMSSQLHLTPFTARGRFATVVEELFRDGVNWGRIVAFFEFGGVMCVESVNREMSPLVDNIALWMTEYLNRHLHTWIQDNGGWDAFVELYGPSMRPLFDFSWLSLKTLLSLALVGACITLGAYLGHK

B1: gasdermin D (endogenous, THP-1 cells) (natural protein, human (endogenous in THP-1), UniProt P57764 1-484, looked up)
chain: MGSAFERVVRRVVQELDHGGEFIPVTSLQSSTGFQPYCLVVRKPSSSWFWKPRYKCVNLSIKDILEPDAAEPDVQRGRSFHFYDAMDGQIQGSVELAAPGQAKIAGGAAVSDSSSTSMNVYSLSVDPNTWQTLLHERHLRQPEHKVLQQLRSRGDNVYVVTEVLQTQKEVEVTRTHKREGSGRFSLPGATCLQGEGQGHLSQKKTVTIPSGSTLAFRVAQLVIDSDLDVLLFPDKKQRTFQPPATGHKRSTSEGAWPQLPSGLSMMRCLHNFLTDGVPAEGAFTEDFQGLRAEVETISKELELLDRELCQLLLEGLEGVLRDQLALRALEEALEQGQSLGPVEPLDGPAGAVLECLVLSSGMLVPELAIPVVYLLGALTMLSETQHKLLAEALESQTLLGPLELVGSLLEQSAPWQERSTMSLPPGLLGNSWGEGAPAWVLLDECGLELGEDTPHVCWEPQAQGRMCALYASLALLSGLSQEPH
notes: gasdermin D (GSDMD), endogenous in the human macrophage cell line THP-1; also called GSDMD; source: endogenous, THP-1 lysate
- fold change of GSDMD associated with Bcl-2 after LPS and nigericin against basal conditions: 2.4 fold
